Test results published in PMC6952207, “Development and Evaluation of a Novel Protein-Based Assay for Specific Detection of KPC β-Lactamases from Klebsiella pneumoniae Clinical Isolates” (mSphere, 2020).

Experiments:
Test in all cases: enzyme inhibition assay (nitrocefin hydrolysis); β-lactamase (0.2 to 1 nM) mixed with increasing concentrations of BLIP^K74T/W112D in 50 mM sodium phosphate pH 7.0, 100 μg/ml BSA, room temperature, 20 min; initial nitrocefin hydrolysis rates at 482 nm fitted to the Morrison tight binding inhibitor equation
[1] = molecular target: KPC-6 β-lactamase (UniProt Q9F663)
[2] = molecular target: KPC-9 β-lactamase (UniProt Q9F663)
[3] = molecular target: TEM-1 β-lactamase (enzyme of the Ki assay) (UniProt P62593)
[4] = molecular target: KPC-7 β-lactamase (UniProt Q9F663)
[5] = molecular target: KPC-8 β-lactamase (UniProt Q9F663)
[6] = molecular target: KPC-4 β-lactamase (UniProt Q9F663)
[7] = molecular target: KPC-5 β-lactamase (UniProt Q9F663)
[8] = molecular target: CTX-M-14 β-lactamase (enzyme of the Ki assay) (UniProt Q9L5C7)
[9] = molecular target: CTX-M-15 β-lactamase (UniProt Q9EXV5)
[10] = molecular target: KPC-3 β-lactamase (UniProt Q9F663)
[11] = molecular target: T1, KPC-2 β-lactamase (purified) (UniProt Q9F663 30-293); conditions: both partners purified
T1 construct: KPC-2 carbapenemase (class A β-lactamase); also called KPC-2 carbapenemase; source: E. coli BL21(DE3) (pET-28a+), purified (Co2+ Talon resin, Superdex75 gel filtration)

[12] = molecular target: T2, OXA-48 carbapenemase (UniProt Q6XEC0 23-265); conditions: both partners purified
T2 construct: OXA-48 carbapenemase (β-lactamase)

Molecule	Ki [1]	Ki [2]	Ki [3]	Ki [4]	Ki [5]	Ki [6]	Ki [7]	Ki [8]	Ki [9]	Ki [10]	Ki [11]	Ki [12]
β-lactamase inhibitory protein variant BLIP^K74T/W112D (from UniProt P35804 37-201) (natural protein)	1.3 nM	0.7 nM	6240 nM	1.5 nM	1.6 nM	1.2 nM	1.5 nM	908 nM	433 nM	2.5 nM	–	–
β-lactamase inhibitory protein variant BLIP^K74T/W112D (natural protein, the variant was found there by mutagenesis and genetic screening; also called BLIP mutant; source: E. coli RB791 (plasmid pGR32), purified (Co2+ Talon resin, Superdex75 gel filtration); not shown: His6, N-terminal, kept) AGVMTGAKFTQIQFGMTRQQVLDIAGAENCETGGSFGDSIHCRGHAAGDYYAYATFGFTSAAADAKVDSKSQETLLAPSAPTLTLAKFNQVTVGMTRAQVLATVGQGSCTTDSEYYPAYPSTAGVTLSLSCFDVDGYSSTGFYRGSAHLWFTDGVLQGKRQWDLV	–	–	–	–	–	–	–	–	–	–	2.4 ± 0.4 nM	1180 ± 129 nM
